{"source": "patent US20130231277A1", "about": "(NEW YORK UNIVERSITY, published 2013)", "binders": {"B1": {"name": "human FGF23, secreted bioactive form (Y25 to I251 of SEQ ID NO: 223) with arginines 176 and 179 replaced with glutamine (ligand)", "chain": "YPNASPLLGSSWGGLIHLYTATARNSYHLQIHKNGHVDGAPHQTIYSALMIRSEDAGFVVITGVMSRRYLCMDFRGNIFGSHYFDPENCRFQHQTLENGYDVYHSPQYHFLVSLGRAKRAFLPGMNPPPYSQFLSRRNEIPLIHFNTPIPRQHTQSAEDDSERDPLNVLKPRARMTPAPASCSQELPSAEDNSPMASDPLGVVRGGRVNTHAGGTGPEGCRPFAKFI", "notes": "The cleavage site was mutated to minimize proteolysis; Used as specificity control on the SPR chip"}, "B2": {"name": "ligand-binding domain of human FGFR2c (N149 to E368 of SEQ ID NO: 226) (receptor)", "chain": "NNKRAPYWTNTEKMEKRLHAVPAANTVKFRCPAGGNPMPTMRWLKNGKEFKQEHRIGGYKVRNQHWSLIMESVVPSDKGNYTCVVENEYGSINHTYHLDVVERSPHRPILQAGLPANASTVVGGDVEFVCKVYSDAQPHIQWIKHVEKNGSKYGPDGLPYLKVLKAAGVNTTDKEIEVLYIRNVTFEDAGEYTCLAGNSIGISFHSAWLTVLPAPGREKE"}, "B3": {"name": "FGF21^29-197/FGF19^204-216 chimera (H29 to V197 of human FGF21 and T204 to K216 of human FGF19; SEQ ID NO: 205) (ligand)", "chain": "HPIPDSSPLLQFGGQVRQRYLYTDDAQQTEAHLEIREDGTVGGAADQSPESLLQLKALKPGVIQILGVKTSRFLCQRPDGALYGSLHFDPEACSFRELLLEDGYNVYQSEAHGLPLHLPGNKSPHRDPAPRGPARFLPLPGLPPALPEPPGILAPQPPDVGSSDPLSMVTGLEAVRSPSFEK", "notes": "Chimera of human FGF21 and human FGF19, purified from E. coli inclusion bodies; also called FGF21^C-tail variant 19-41; printed once as FGF21^29-97/FGF19^204-216"}}, "key": {"[1]": {"molecular_target": "T1, ectodomain of murine βKlotho (F53 to L995 of SEQ ID NO: 218) with a C-terminal FLAG tag (murine, UniProt Q99N32 53-995)", "T1 construct": "Expressed in HEK293 cells and purified from culture media; also called βKlotho ectodomain; not shown: C-terminal FLAG tag", "T1 sequence": "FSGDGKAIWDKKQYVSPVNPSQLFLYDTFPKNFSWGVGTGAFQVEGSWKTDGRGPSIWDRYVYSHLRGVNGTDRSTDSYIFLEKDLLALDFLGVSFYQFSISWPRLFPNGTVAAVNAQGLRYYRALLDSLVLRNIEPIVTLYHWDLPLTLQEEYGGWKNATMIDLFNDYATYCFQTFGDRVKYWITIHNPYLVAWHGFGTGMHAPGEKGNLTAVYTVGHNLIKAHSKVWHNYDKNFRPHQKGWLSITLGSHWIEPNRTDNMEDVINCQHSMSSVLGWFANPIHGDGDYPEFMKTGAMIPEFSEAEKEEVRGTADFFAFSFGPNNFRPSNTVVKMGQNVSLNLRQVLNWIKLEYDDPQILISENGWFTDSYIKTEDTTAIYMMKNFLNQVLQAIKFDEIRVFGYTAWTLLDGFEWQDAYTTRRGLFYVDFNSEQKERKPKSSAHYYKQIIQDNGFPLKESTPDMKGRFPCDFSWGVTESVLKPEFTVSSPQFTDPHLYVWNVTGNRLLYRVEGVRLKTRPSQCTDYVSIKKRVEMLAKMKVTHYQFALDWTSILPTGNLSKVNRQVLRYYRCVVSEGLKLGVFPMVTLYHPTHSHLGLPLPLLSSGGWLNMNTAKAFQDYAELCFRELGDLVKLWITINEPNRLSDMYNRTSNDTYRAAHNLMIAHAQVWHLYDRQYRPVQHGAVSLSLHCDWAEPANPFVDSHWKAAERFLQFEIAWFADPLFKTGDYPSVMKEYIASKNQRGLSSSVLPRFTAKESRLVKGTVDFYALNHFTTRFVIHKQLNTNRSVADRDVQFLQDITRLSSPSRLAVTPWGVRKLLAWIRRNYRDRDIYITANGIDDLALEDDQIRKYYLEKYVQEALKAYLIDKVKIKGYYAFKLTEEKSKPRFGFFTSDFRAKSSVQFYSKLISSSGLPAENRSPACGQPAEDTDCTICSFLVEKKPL", "assay": "SPR; FGF23 immobilized, increasing concentrations of βKlotho ectodomain passed over the chip (FIG. 4C)", "text": "FGF19 was immobilized on a biosensor chip, and increasing concentrations of βKlotho ectodomain were passed over the chip. […] FGF21 was immobilized on a biosensor chip, and increasing concentrations of βKlotho ectodomain were passed over the chip. Note that for any given concentration of βKlotho, the binding response is greater on the FGF19 chip surface than on the FGF21 chip surface. Also note that the FGF19-βKlotho complex dissociates more slowly than the FGF21-βKlotho complex (compare the dissociation phases of the sensorgrams shown in (A) and (B)). […] FGF23 was immobilized on a biosensor chip, and increasing concentrations of βKlotho ectodomain were passed over the chip. […] FGF19 was immobilized on a biosensor chip, and increasing concentrations of αKlotho ectodomain were passed over the chip. […] FGF21 was immobilized on a biosensor chip, and increasing concentrations of αKlotho ectodomain were passed over the chip. […]\nSPR experiments were performed on a Biacore 2000 instrument (Biacore AB), and all the protein-protein and protein-peptide interactions were studied at 25° C. in HBS-EP buffer (10 mM HEPES-NaOH, pH 7.4, 150 mM NaCl, 3 mM EDTA, 0.005% (v/v) polysorbate 20). […] In experiments where βKlotho binding to FGFR was analyzed, the chip surface was then regenerated by injecting 50 μl of 2.0 M NaCl in 10 mM sodium/potassium phosphate, pH 6.5."}, "[2]": {"molecular_target": "T1, ectodomain of murine βKlotho (F53 to …)", "assay": "SPR; βKlotho ectodomain immobilized, FGFR ligand-binding domain as analyte (FIG. 3B)", "method": "FIGS. 3A-3G show the FGFR binding specificity profile of βKlotho. […] Where binding was observed, the dissociation constant (KD) was calculated from the saturation binding curve. The data shown in FIGS. 3A-G are representative of two to five independent experiments.\nSPR experiments were performed on a Biacore 2000 instrument (Biacore AB), and all the protein-protein and protein-peptide interactions were studied at 25° C. in HBS-EP buffer (10 mM HEPES-NaOH, pH 7.4, 150 mM NaCl, 3 mM EDTA, 0.005% (v/v) polysorbate 20). Proteins were immobilized by amine coupling on flow channels of research grade CM5 chips (Biacore AB). Proteins were injected over a CM5 chip at a flow rate of 50 μl min⁻¹, and at the end of each protein injection (180 s), HBS-EP buffer (50 μl min⁻¹) was flowed over the chip to monitor dissociation for 180 s. In experiments where βKlotho binding to FGFR was analyzed, the chip surface was then regenerated by injecting 50 μl of 2.0 M NaCl in 10 mM sodium/potassium phosphate, pH 6.5. In experiments where α/βKlotho binding to FGF19/21/23 or binding of the FGFR1c-βKlotho complex to FGF21 was studied, 2.0 M NaCl in 10 mM sodium acetate, pH 4.5 was used for chip regeneration. To control for nonspecific binding in experiments where the ectodomain of αKlotho or βKlotho was immobilized on the chip, β-glucuronidase was coupled to the control flow channel of the chip (˜43-68 fmol/mm²)."}, "[3]": {"molecular_target": "T2, 1:1 binary complex of FGFR1c ligand-binding domain and βKlotho ectodomain (human; murine, UniProt P11362 142-365; Q99N32 53-995)", "T2 construct": "also called FGFR1c-βKlotho complex; FGFR1c-βKlotho; not shown: C-terminal FLAG tag", "T2 sequence 1": "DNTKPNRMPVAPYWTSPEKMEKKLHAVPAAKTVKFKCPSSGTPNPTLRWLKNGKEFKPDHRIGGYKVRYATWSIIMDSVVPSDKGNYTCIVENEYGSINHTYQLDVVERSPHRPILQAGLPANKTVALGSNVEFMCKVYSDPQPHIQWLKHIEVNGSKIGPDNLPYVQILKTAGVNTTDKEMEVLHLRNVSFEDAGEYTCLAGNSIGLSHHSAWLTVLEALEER", "T2 sequence 2": "T1 sequence", "assay": "SPR competition; FGF21 immobilized, FGFR1c-βKlotho complex mixed with an equimolar amount of the chimera (FIG. 15F)", "method": "To examine whether mutants of FGF21 or chimeras composed of a N-terminal portion of FGF21 and a C-terminal portion of FGF19 can compete with wild-type ligand for binding to the FGFR1c-βKlotho complex, FGF21 was immobilized on a chip (˜30 fmol/mm² of flow channel). Increasing concentrations of FGF21 mutant or chimera (0-60 nM) were mixed with a fixed concentration of 1:1 complex of FGFR1c ligand-binding domain and βKlotho ectodomain (10 nM), and the mixtures were passed over the chip. As a control, competition of FGF21 in solution with immobilized FGF21 for binding to the FGFR1c-βKlotho complex was studied. The results are shown in FIGS. 14A to 14D and 15A to 15F.\nA competition binding assay was selected over a direct binding assay because its binding data are not confounded by the effects that the coupling of one binding partner to the chip might have. Specifically, it was examined whether a mutant or chimera can compete with native FGF21 for binding to the FGFR1c-βKlotho complex. […] FGF21 was immobilized on a biosensor chip, and mixtures of a fixed concentration of FGFR1c-βKlotho complex with increasing concentrations of either FGF21 mutant or FGF21/FGF19 chimera were passed over the chip. As a control, competition of FGF21 in solution with immobilized FGF21 for binding to the FGFR1c-βKlotho complex was studied."}}, "data": [{"binder": "B1", "values": [{"measurement": "binding result", "setting": "[1]", "result": "no binding"}]}, {"binder": "B2", "values": [{"measurement": "binding result", "setting": "[2]", "result": "binds"}]}, {"binder": "B3", "values": [{"measurement": "percent inhibition of FGFR1c-βKlotho binding to immobilized FGF21 at an equimolar ratio of chimera to complex", "setting": "[3]", "result": "≤ 75", "unit": "%"}]}]}
